# According to the nanobody polyreactivity screen of Harvey et al. (2022):
# Assay: yeast display, Sf9 membrane polyspecificity reagent, FACS + sequencing; frameworks hold sequencing errors
# Outline: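 Using colony PCR, genes from sorted yeast display clones were amplified, then sequenced on MiSeq at 2 × 250 and filtered by CDR length. The clones had been stained with 10% biotinylated, detergent-solubilized Sf9 membrane reagent for 1 hour at 4 °C and sorted by FACS into low and high (top ~1%) gates on anti-HA and streptavidin fluorescence. Polyreactivity labels come from the gate of origin.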
row,Sequence,polyreactivity (PSR sort gate)
1,QVQLVESGGGIVQAGGSHRVICAASGRIFRRYTMGWYRQATGKERDLVATITWDGVSTYYADSVKGRFTISRDNAKKTDYLQMNSLKPEDTAGYYCAARRVYLVGGRYDSWGQGTQVTVSS,high polyreactivity
2,QVQLVESGGGIVQAGGSLRISCAASRRTYFFNDMGWYRQAPGKERELVAAIGWSTVTTYYADSVKGRFTISRDNAKYTVYFQMISLKPEDTAVYYCAADADGWYSPYDYWGQGSQVTVSS,high polyreactivity
3,QVQLVESGGGIVQAGGSLRLICAASGFTFGEYAMGRYRQAPGKERELVAAISRGTSTYYADSVKGRFTISRDNAKTTVYLQMNSLKPEDTAVYYCAADWGGLWFWYEYWGQGTQVTVSS,low polyreactivity
4,QVQLVESGGGIVQAGGSLRLICAASGLIFTLYAMGWSRQAPGKERQLVAVISSAGSTNYADSVKGRFTISRDTAKNTVYLQMNSLKPEETAVYYCNAEPTTPYWDYWAYEDDYWGQGTQVTVSS,low polyreactivity
5,QVQLVESGGGIVQAGGSLRLICAASGRIFPYNVMGWYRQAPGKERELVAAISSGGTTDYADSVKGRFTISRDNAKNTVYLQMNSLKPEDTAVYYCAATYVYWTWGYDYWGQGTQVTVSS,low polyreactivity
6,QVQLVESGGGIVQAGGSLRLICAASGSIFSSNAMGWYRQAPGKERELVAAISYSGGGTYYADSVKGRFTISRDNEKNTVYLQMNSLKAEDTAVYYCAVGILFGHYDYLGQGTQVTVSS,high polyreactivity
7,QVQLVESGGGIVQAGGSLRLRCAASGSTFKVYAIGWYRQATGKERELVAAISRGGRTYYADSVKGRFTISRDNAKNTVYLQMNSLKPEDTAVYYCAAGDQYKTRRNGYGYWGQGTQVTLSS,high polyreactivity
8,QVQLVESGGGIVQAGGSLRLSCAAAGFTFWQYAMGWYRQAPGKERELVAAITWDGGSTYYADSVKGRFTISRDYAKNTVYLQMNSLKPEDTAVYYCAKLFGGTYYEYDYWGQGTQVTVSS,low polyreactivity
9,QVQLVESGGGIVQAGGSLRLSCAASGFIFAGNAMGWSSQAPGKERELVAAITRRGGSTHYADSVKGRFTISRDKAKYTVYLQMNSLKPEDTAVYYCNAAVQPPWSDYWGQGTQVTVSS,low polyreactivity
10,QVQLVESGGGIVQAGGSLRLSCAASGFIFRYYAMGWYRHAPGKESELVATITRSGGSTYYADSVKGRFTISRDNAKNTVYLQMNSLKPEDTAVYYCAADIYWYRGYGYWGQGTQVTVSS,high polyreactivity
11,QVQLVESGGGIVQAGGSLRLSCAASGFIFVLYAMGWYRQAPGKERELVASISSTGSTYYADSVKGRFTISRENAKNTVYLQMNSLIPEDTAVYYCNLFVFDPEDFWGEGTQVTVSS,low polyreactivity
12,QVQLVESGGGIVQAGGSLRLSCAASGFIFWKNAMGWYSQAPGKERELVAAISTRGGSTYYADSVKGRFTISRDNAKNTVYLQMNSLKPEDTAVYYCNKEWYPYKHNYWGQGTQVTVSS,low polyreactivity
13,QVQLVESGGGIVQAGGSLRLSCAASGFKFKFYVMGWYRQAPGKERELVAAISRNSVSTYYADSVKGRFTISRDNAKNTVYLQMNSLKPEDTAVYYCAAKGPRQYNHWGQGTQVTVSS,high polyreactivity
14,QVQLVESGGGIVQAGGSLRLSCAASGFLYFFYAMGWYRQAPRKQRELVAANSDGVSTYYADSVKGRFTISRDNAKNTVYLQMNSLKPEDTAVFYCAVSRGDDPEFDYWGQCTQVTVSS,low polyreactivity
15,QVQLVESGGGIVQAGGSLRLSCAASGFTFIRYAMLWYRQAPGIERELVAAITSSGGSTYSADSVKGRFTISRDNAKNTVYLQKNSLKPEDTAVYYCATVYSGPVRAIGYDYWGQGTQVTVSS,high polyreactivity
16,QVQLVESGGGIVQAGGSLRLSCAASGFTFKKYAMGWYRQAPGKERELVAAISRSGGRTYYADSVKGRFTISRDNAKNTVFLQMNSLKPEDTAVYYCNADYYSAAYYYWGQGTQVTVSS,high polyreactivity
17,QVQLVESGGGIVQAGGSLRLSCAASGFTFQFYAMGWYRQAPGKEREFVAAISGSGGSTYYADSVKGRFTISRDNAKNTVYLQMNSLKPEDTAVYYCAAEVPGKPYRRSRYSFRHDYWGQGTQVTVSS,low polyreactivity
18,QVQLVESGGGIVQAGGSLRLSCAASGFTFYYKAMGWYRQAPGKERELVAAISRGGRTNYADSVKGRFTISRDNAKNTVYLEMNSLTPADTAVYYCAADRYNGVYAVYYYGYDYWGQGTKVTVSS,high polyreactivity
19,QVQLVESGGGIVQAGGSLRLSCAASGFTYVYYVMGWYRQAPGKDRELVAAINAGGGSTYYADSVKGRFTNSRDIAKNTVYLQMNSLKPEDTADYYCNARVRVRLGRNWSSYYYWGQGTQVTVSS,high polyreactivity
20,QVQLVESGGGIVQAGGSLRLSCAASGGIFWRYAMGWYRQAPGKERELVAAISSRGGSTYYADSVKGRFTISRDNAKNTVYLQMNSLKPEDTAVYYCAADRRYAESGYYWGHGTQVTVSS,high polyreactivity
21,QVQLVESGGGIVQAGGSLRLSCAASGGTCWFYDMGWYRQAPGKERELVAAINSDGSTYYADSVKGRFTISRDNAMNTVYLQMNSLQPEDTAVYYCAADISLHWYYYRRYNYWGQGTQGTVSS,low polyreactivity
22,QVQLVESGGGIVQAGGSLRLSCAASGGTFIRYAMGWYRQAPGKEREFVAAISASGGSTYYADSVKGRFTISRDNAKNTVYLQMNSLKPEDTAVYYCAARRTNLPVKFYYWGQGTQVTVSS,high polyreactivity

row,Sequence,polyreactivity (PSR sort gate)
1,QVQLVESGGGIVQAGGSLRLSCAASGGTFTRYAMGWYRQAPGKEREFVAAISGSGGSTYYADSVKGRFTISRDNAKNTVYLQMNSLKPVDTAVYYCNKVPVYPPSYYWGQGTQVTVSS,low polyreactivity
2,QVQLVESGGGIVQAGGSLRLSCAASGIIIQYYAMGWYRQAPGKERELVAAISWSGGSTYYADSVKGRFTISRDNAKNTVYLQMNSLKPEDTAVYYCAARSRSYWPYEGDYWGQGTQVTVSS,low polyreactivity
3,QVQLVESGGGIVQAGGSLRLSCAASGISFLRYAMGWYRQAPGKEREFVAAINSIVGRTYYADSVKGRFTISRDNAKNTVYLQMNSLIPDDTAVYYCAADSNVRYGMDYWGQGTQVTVSS,low polyreactivity
4,QVQLVESGGGIVQAGGSLRLSCAASGITFPLYVMGWYRQAPGKERELVAAISASGGSTYADSVKGRFTISRDNAKNTVYLQMNSLKPEDTAVYYCNADVYVGYDYDYWGQGTQVTVSS,low polyreactivity
5,QVQLVESGGGIVQAGGSLRLSCAASGITIYKYAMGWYRQAPGKERELLAAITRGGSTYYADSVKGRFTISRDNAKNTVYLQMNSLNPEDTAVYYCNKVYHWQTPGFGYGYWGQGTQVTVSS,high polyreactivity
6,QVQLVESGGGIVQAGGSLRLSCAASGLTFWPYAMGWYRQARGKERELVAAISYNSGRTYYADSVKGRFTISRDNAKNTVYLQMNSLKPEDTEVYYCAVEWSLSRYYYWGQGTQVTVSS,high polyreactivity
7,QVQLVESGGGIVQAGGSLRLSCAASGLTFWYYAMGGYRQAPGKVRELVARITRSGVGTYYADSVKGRFTISRDNAKNTVYLQMNSLKPEDTAVYYCAARYWVSGFRAGYYWGQGTQVTVSS,high polyreactivity
8,QVQLVESGGGIVQAGGSLRLSCAASGLTFYVYAMGWYREAPGKEREFVAAITWSGGSTYYADSVKGRFTISRDNAKNTVYLQMNSLKPEDTAVYYCAAETLWSELYYWGQGTQVTVSS,high polyreactivity
9,QVQLVESGGGIVQAGGSLRLSCAASGLTYGKYAMGWNRPAPGKERELVAANSRRGGSTYYADSVKGRFTISRDKAKNNDYLQMNRLKPEDSAVYYFNTDTKHTGLDYWGQGTQVSVSS,high polyreactivity
10,QVQLVESGGGIVQAGGSLRLSCAASGNIFGQYAMGWYRQAPGKERELVAAITTTGSTYYADSVKGRFTISRDNAKNTVYLQMNSLKPEDTAVYYCAAVRYYPISYSEYWQYGYWGQGTQVTVSS,low polyreactivity
11,QVQLVESGGGIVQAGGSLRLSCAASGNIFHQNAMGWYRQAPGKERELVAAISGSAGSTYYADSVKGRFTISRDNAKNTVYLQMNSLKPEDTAVYYCAADYYWLYNYWGQGTQVTVSS,high polyreactivity
12,QVQLVESGGGIVQAGGSLRLSCAASGNNFSLNGMGWYRQAPGKEREFLAAITWSVGSTYYAYSVNGRLTISRDNAKNTVYLQMNSLKPEDTAVYDCAATVSDLYKNEYYYWGLGTQVTVSS,low polyreactivity
13,QVQLVESGGGIVQAGGSLRLSCAASGPIFGSYALRWARQAPGKERELVAAITRSGGSTYYADSVKGRFTISRDNAKNTVYLQMNILKPEDTAVYYCAAYFSFSGSAKFGYWGQGTQVTVSS,high polyreactivity
14,QVQLVESGGGIVQAGGSLRLSCAASGPTFYLYDTMGWYRQAPGKERELVAAISWDDGDTYYADSVKGRFTISRDNAKNTVYLQMNSLKPEDTAVYYCAAESLSGAHGYWGQGTQVTVSS,low polyreactivity
15,QVQLVESGGGIVQAGGSLRLSCAASGRIFGFYAMVWYRQAPGNERELVAAITINTGSTSYADSVKGRFTSSRDNAKNTDSLPMNSLKPEDTAVYYCATDAAAPKYDYWGQGPQVTVSS,low polyreactivity
16,QVQLVESGGGIVQAGGSLRLSCAASGRIFGGNAMGWYRQAPGKERELVADISYGGGSTNYADSVKGRFTISRDNAKNTVYLQMNSLKPVDTAVYYCARDAWNTDGAYIGGDYDYWGQGTQVNVSS,low polyreactivity
17,QVQLVESGGGIVQAGGSLRLSCAASGRIFGRYAMGWYIQAPGKERELVAAISRSGGSTYYADSVKGRFTISRDNAKYTVYLQMNSLKPEDTAVYYCNAKYVRAGDTYDYWGQGTQVTVSS,high polyreactivity
18,QVQLVESGGGIVQAGGSLRLSCAASGRIFGTYGMGWYRQAPGKERELVAAISGGGSTNYADSVKGRFTISRDNAKNTVYLQMNSLKPEDTAVYYCAARYPPYRSWYSYDYWGHGTQVTVSS,low polyreactivity
19,QVQLVESGGGIVQAGGSLRLSCAASGRIFTQYTMGWYRQAPGKERELVAAINYSGGRTNYADSVKGRFTISRDIAKNTVYLQMNSLKPEDTAVYYCAAGYRRATYGYWGQGTQVTVSS,high polyreactivity
20,QVQLVESGGGIVQAGGSLRLSCAASGRIFVLNAMGWYRQAPGKERELVAAISKSAGSTYYADSVKGRFTISRDNAKNTVYLQMNSLKPEDTAVYYCNVGRRGHYLDAYDYWGQGTQVTVSS,high polyreactivity
21,QVQLVESGGGIVQAGGSLRLSCAASGRNFTFYAMGWYRQAPGKERELVAAITKSGGSTYYADSVKGRFTISRDNAKNTVYLQMNSLKPEDTAVYYCAAGNHRRPADYGSWGQGTQVTVSS,low polyreactivity
